From patent US20200231684A1 (published 2020)

B1: antibody 78C8 (antibody, V domains shown)
VH: QVQLKESGPVLVAPSQSLSITCTVSGFSLTKFGVHWIRQTPGKGLEWLGVIWAGGPTNYNSALMSRLTISKDISQSQVFLRIDSLQTDDTAMYYCAKQIYYSTLVDYWGQGTSVTVSS
VL: DVLLTQTPLSLPVSLGDQASISCRSSQNIVHSNGNTYLQWYLQKPGQSPKLLIYKVSNRFSGVPDRFSGSGSGTDFTLKISRVEAEDLGVYYCFQGSHVPFTFGAGTKLELK
notes: Mouse monoclonal from hybridoma; also called 78C8D1; Mouse 78C8
B2: antibody 81B4 (antibody, V domains shown)
VH: QVQLQQPGADFVRPGASMRLSCKASGYSFTSSWIHWVKQRPGQGLEWIGEINPGNVRTNYNENFRNKATLTVDKSSTTAYMQLRSLTSADSAVYYCTVVFYGEPYFPYWGQGTLVTVSA
VL: QIVLTQSPAIMSASLGERVTMTCTASSSVSSSYFHWYQQKPGSSPKLWIYRTSNLASGVPGRFSGSGSGTSYSLTISSMEAEDAATYYCHQFHRSPLTFGAGTKLELK
notes: Mouse monoclonal from hybridoma; also called 81B4E11; Mouse 81B4

Experiments:
human IL-36R on cells [1] = target: T1, human IL-36R on cells (human, UniProt Q9HB29 20-575); assay: flow cytometry, HEK293 cells transfected with full-length human IL-36R
T1 construct: whole, on cells; also called full-length human IL-36R on HEK293 transfectants; HEK-IL-36R cells
T1 sequence (looked up): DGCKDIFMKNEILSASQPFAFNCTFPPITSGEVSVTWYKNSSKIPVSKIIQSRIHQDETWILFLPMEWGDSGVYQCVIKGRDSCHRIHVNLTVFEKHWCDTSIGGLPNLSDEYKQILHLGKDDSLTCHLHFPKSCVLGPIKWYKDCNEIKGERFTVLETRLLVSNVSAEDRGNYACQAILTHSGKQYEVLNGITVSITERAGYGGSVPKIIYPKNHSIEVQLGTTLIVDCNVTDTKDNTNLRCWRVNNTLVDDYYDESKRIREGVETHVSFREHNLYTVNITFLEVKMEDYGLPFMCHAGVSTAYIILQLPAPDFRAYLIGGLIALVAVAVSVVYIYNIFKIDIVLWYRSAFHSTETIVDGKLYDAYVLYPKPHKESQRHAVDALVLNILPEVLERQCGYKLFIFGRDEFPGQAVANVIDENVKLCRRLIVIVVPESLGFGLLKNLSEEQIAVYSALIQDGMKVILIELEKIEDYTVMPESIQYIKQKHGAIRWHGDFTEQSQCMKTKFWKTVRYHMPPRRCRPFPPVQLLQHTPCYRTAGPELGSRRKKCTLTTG
Experimental: HEK293 cells transfected with full-length human IL-36R or NCI/ADR-RES cells were passaged for 24 hours prior to staining. Cells were removed from flasks by rinsing with 10 ml of 5 mM EDTA in PBS, and then incubated at 37° C. for 10 min with an additional 10 ml of 5 mM EDTA and 2.5 ml of Accumax to declump/disperse cells. Antibodies were then diluted to specified concentrations in PBS+2% BSA, and cells incubated for 20 min at room temperature. Excess antibody was then washed by adding 200 μl of PBS and then centrifuged. Secondary reagent was then added at 50 μl per well and cells are incubated for 15 min at room temperature and then washed as above. Cells were resuspended in 200 μl PBS and analyzed by flow cytometry.

[2] = target: cynomolgus IL-36R on BaF/3 cells (cynomolgus, UniProt A0A2K5WSK9 20-558); assay: cell-based or functional assay
human IL-36R on cells [3] = target: T1, human IL-36R on cells; assay: cell-based or functional assay
human IL-36R on cells [4] = target: T1, human IL-36R on cells; assay: cell-based or functional assay; remark: listed apart in the source
[5] = target: T2, recombinant human IL-36R (ECD) (human, UniProt Q9HB29 20-332); assay: SPR (ProteOn), single IL-36R surface coat concentration
T2 construct: range 20-332; also called IL-1RL2; IL-1Rrp2
T2 sequence (looked up): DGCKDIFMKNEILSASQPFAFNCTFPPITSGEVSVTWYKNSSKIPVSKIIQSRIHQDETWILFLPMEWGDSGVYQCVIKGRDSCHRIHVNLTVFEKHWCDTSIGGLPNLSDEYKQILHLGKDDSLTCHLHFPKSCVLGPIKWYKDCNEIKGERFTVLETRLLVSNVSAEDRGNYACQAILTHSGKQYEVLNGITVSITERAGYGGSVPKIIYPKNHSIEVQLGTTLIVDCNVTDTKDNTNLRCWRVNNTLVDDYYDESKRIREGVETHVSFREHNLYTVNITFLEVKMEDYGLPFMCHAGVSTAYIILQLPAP
Experimental: A) Kinetics and binding affinities of anti-IL-36R antibodies binding to recombinant human IL-36R were measured using the Proteon (Bio-Rad, Hercules, Calif.) using material generated from hybridoma following single column purification. […] Binding of the chimeric anti-IL36R IgGs is equivalent to the respective mouse leads.

human IL-1R1 = target: T3, human IL-1R1 (human, UniProt P14778 18-336, limits assumed); assay: BLI (Fortebio Octet), antibody injected over antigen surface
T3 construct: also called IL-1RI
T3 sequence (looked up): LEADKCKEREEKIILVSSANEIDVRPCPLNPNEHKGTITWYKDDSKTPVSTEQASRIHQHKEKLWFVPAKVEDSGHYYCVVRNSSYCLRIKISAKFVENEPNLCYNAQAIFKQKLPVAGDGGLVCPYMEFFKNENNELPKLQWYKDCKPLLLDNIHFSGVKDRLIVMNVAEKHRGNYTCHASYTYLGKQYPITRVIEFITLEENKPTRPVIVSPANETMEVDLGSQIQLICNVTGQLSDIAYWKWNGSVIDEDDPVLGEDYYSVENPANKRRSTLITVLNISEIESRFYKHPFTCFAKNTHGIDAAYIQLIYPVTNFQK
Experimental: (§1) B) Molecular selectivity over mouse IL-36R and human IL-1R1 The mouse and chimeric anti-IL-36R antibodies were also injected over either a mouse IL-36R or a human IL-1R1 surface at a concentration of 100 nM. The binding signal to mouse IL-36R and to human IL-1R1 for these antibodies measured using the Fortebio Octet (Fortebio, Menlo Park, Calif.) is zero, which indicates these antibodies selectively bind to human IL-36R.

mouse IL-36R = target: T4, mouse IL-36R (mouse, UniProt Q9ERS7 22-338); assay: as above
T4 sequence (looked up): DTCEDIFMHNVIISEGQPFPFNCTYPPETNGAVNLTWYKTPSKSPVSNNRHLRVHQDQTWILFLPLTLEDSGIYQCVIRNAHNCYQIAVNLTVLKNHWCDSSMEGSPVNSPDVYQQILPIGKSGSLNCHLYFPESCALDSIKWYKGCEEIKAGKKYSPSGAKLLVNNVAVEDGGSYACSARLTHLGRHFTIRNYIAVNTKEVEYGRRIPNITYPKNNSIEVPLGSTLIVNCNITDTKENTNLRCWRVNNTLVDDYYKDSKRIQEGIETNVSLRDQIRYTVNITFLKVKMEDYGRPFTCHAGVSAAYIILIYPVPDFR
Experimental: as §1

[6] = target: T2, recombinant human IL-36R (ECD); assay: SPR (ProteOn), recombinant human IL-36R at 7 surface densities, global fit
Experimental: A) Kinetics and binding affinities of anti-IL-36R antibodies binding to recombinant human IL-36R were measured using the Proteon (Bio-Rad, Hercules, Calif.) using material generated from hybridoma following single column purification. […] The binding affinities of the mouse antibodies to human IL-36R run at 7 different surface densities (globally fit) is shown in Table 1. Binding of the chimeric anti-IL36R IgGs is equivalent to the respective mouse leads.

Chain of cynomolgus IL-36R on BaF/3 cells (A0A2K5WSK9 entry or part of it): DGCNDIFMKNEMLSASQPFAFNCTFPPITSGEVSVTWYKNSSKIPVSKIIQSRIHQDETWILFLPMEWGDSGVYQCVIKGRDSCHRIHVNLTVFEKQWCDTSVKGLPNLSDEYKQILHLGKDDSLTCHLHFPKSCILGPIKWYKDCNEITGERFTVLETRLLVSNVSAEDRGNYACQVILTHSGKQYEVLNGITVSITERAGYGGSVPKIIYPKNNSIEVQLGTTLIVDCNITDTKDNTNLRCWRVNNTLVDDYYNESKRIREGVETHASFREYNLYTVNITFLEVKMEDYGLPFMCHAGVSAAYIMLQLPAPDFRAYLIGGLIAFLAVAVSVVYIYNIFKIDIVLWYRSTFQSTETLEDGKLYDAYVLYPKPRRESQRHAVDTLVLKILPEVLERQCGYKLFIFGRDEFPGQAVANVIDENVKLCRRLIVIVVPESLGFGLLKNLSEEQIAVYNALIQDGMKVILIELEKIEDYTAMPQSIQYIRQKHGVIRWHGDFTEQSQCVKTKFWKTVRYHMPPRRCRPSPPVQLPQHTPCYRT

Binder	EC50 (human IL-36R on cells [1])	IC90, pNFκB, BaF/3 cynomolgus IL-36R cells, trun-IL-36a [2]	IC90, pNFκB, BaF/3 cynomolgus IL-36R cells, trun-IL-36b [2]	IC90, pNFκB, BaF/3 cynomolgus IL-36R cells, trun-IL-36g [2]	IC90, GM-CSF release, NCI/ADR-RES cells, trun-IL-36a (human IL-36R on cells [3])	IC90, GM-CSF release, NCI/ADR-RES cells, trun-IL-36b (human IL-36R on cells [3])	IC90, GM-CSF release, NCI/ADR-RES cells, trun-IL-36g (human IL-36R on cells [3])	IC90, IL-6 release, NCI/ADR-RES cells, trun-IL-36a (human IL-36R on cells [3])	IC90, IL-6 release, NCI/ADR-RES cells, trun-IL-36b (human IL-36R on cells [3])	IC90, IL-6 release, NCI/ADR-RES cells, trun-IL-36g (human IL-36R on cells [3])	IC90, IL-8 release, NCI/ADR-RES cells, trun-IL-36a (human IL-36R on cells [3])	IC90, IL-8 release, NCI/ADR-RES cells, trun-IL-36b (human IL-36R on cells [3])	IC90, IL-8 release, NCI/ADR-RES cells, trun-IL-36g (human IL-36R on cells [3])	IC90, pNFκB, NCI/ADR-RES cells, trun-IL-36a (human IL-36R on cells [3])	IC90, pNFκB, NCI/ADR-RES cells, trun-IL-36b (human IL-36R on cells [3])	IC90, pNFκB, NCI/ADR-RES cells, trun-IL-36g (human IL-36R on cells [3])	IC90, IL-8 release, human primary keratinocytes (NHK), trun-IL-36a (human IL-36R on cells [4])	IC90, IL-8 release, human primary keratinocytes (NHK), trun-IL-36b (human IL-36R on cells [4])	IC90, IL-8 release, human primary keratinocytes (NHK), trun-IL-36g (human IL-36R on cells [4])	IC90, pNFκB, human primary keratinocytes (NHK), trun-IL-36a (human IL-36R on cells [4])	also measured
B1	0.529 nM	1 nM	2.1 nM	1.5 nM	7.1 nM	2 nM	1.7 nM	14 nM	5.8 nM	1.3 nM	4.7 nM	1.1 nM	1.4 nM	5.8 nM	6.8 nM	4.6 nM	19.3 nM	34 nM	3.6 nM	11.6 nM	IC90, pNFκB, human primary keratinocytes (NHK), trun-IL-36b (human IL-36R on cells [4]): 14.2 nM; IC90, pNFκB, human primary keratinocytes (NHK), trun-IL-36g (human IL-36R on cells [4]): 10.6 nM; Kd [5]: < 0.1 nM; binding result (human IL-1R1): no binding (tested: 100 nM); binding result (mouse IL-36R): no binding (tested: 100 nM); Kd [6]: 0.063 nM
B2	0.302 nM	2.4 nM	3.5 nM	5.1 nM	0.8 nM	0.3 nM	0.4 nM	0.8 nM	0.3 nM	0.2 nM	0.7 nM	0.2 nM	0.3 nM	1.7 nM	1.4 nM	1.2 nM	0.7 nM	1.2 nM	0.5 nM	1.3 nM	IC90, pNFκB, human primary keratinocytes (NHK), trun-IL-36b (human IL-36R on cells [4]): 1.1 nM; IC90, pNFκB, human primary keratinocytes (NHK), trun-IL-36g (human IL-36R on cells [4]): 0.5 nM; Kd [5]: < 0.1 nM; binding result (human IL-1R1): no binding (tested: 100 nM); binding result (mouse IL-36R): no binding (tested: 100 nM); Kd [6]: 0.024 nM
